Consider four molecules from paper PMC10766783 (Life Science Alliance, 2024).

One experiment addresses camrelizumab. Put plainly: BLI; Octet RED96; antibodies captured on anti-human Fc AHC2 tips, PD-1 proteins as analyte at different concentrations; Octet kinetics buffer; 1:1 binding model.
The next experiment deals with cemiplimab. The experiment is described as above.
The target of a further experiment is nivolumab. Described as above.
A further experiment deals with pembrolizumab. The experiment is described as above.
Sequence of pembrolizumab (heavy, as listed by the source, chain 1 of 2): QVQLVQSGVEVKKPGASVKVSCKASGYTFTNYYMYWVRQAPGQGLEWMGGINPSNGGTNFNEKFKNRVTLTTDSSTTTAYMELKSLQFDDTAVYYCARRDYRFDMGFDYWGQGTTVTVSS
Sequence of pembrolizumab (light, as listed by the source, chain 2 of 2): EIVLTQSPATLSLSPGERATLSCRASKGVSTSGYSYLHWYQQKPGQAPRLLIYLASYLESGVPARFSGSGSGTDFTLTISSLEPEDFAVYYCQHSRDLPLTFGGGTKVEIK
Experiment [1] deals with T1, PD-1 on Jurkat-Lucia TCR-hPD-1 cells (Homo sapiens, UniProt Q15116).
T1 sequence (Q15116 25-288): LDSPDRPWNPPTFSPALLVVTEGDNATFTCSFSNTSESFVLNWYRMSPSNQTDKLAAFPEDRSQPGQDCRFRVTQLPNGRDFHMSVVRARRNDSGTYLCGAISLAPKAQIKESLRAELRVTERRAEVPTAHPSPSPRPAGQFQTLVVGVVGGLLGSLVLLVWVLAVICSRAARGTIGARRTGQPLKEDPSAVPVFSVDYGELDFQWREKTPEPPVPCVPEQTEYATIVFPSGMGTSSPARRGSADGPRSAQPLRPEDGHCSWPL
The target of experiment [2] is T2, recombinant PD-1 N58Q mutant (human, UniProt Q15116, N58Q).
T2 construct: PD-1, human, UniProt Q15116, residues 24-167 of the extracellular portion, N58Q; source: Expi293, transiently transfected, purified (Ni Sepharose Excel)
T2 sequence (Q15116 24-167 N58Q): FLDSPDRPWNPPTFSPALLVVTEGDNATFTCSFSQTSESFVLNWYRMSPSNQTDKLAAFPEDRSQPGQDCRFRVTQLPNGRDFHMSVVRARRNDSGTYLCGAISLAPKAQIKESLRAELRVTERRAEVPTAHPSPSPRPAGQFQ
Put plainly: ELISA; plate-based ligand blocking: plates coated with 5 ug/ml PD-1, PD-1 NF or PD-1 N58Q; antibodies 1 h at room temperature, washed, then 1 ug/ml PD-L1-Fc-biotin 2 h; streptavidin-HRP. The note with it: both partners purified. For orientation: An ELISA detects its analyte on a solid surface through an enzyme-linked reagent.

Experiment [3] has as its target T3, full-length PD-1 on CHO-K1 Fut8 KO cells (human, UniProt Q15116, N-glycans without core fucose (Fut8 KO host)).
T3 construct: PD-1, human, full length, on transfected cells; also called PD-1 expressed in CHO-K1 Fut8 KO; Fut8-deficient cells; source: CHO-K1 Fut8 KO, transfected, on cells
Put plainly: flow cytometry on cells; ligand blocking: PD-1-transfected CHO-K1 or CHO-K1 Fut8 KO cells incubated with antibodies 15 min on ice before PD-L1:SA-PE complexes; four-parameter logistic fit. Particulars: one partner purified. In general terms: A flow cytometer gives signals particle by particle.

For experiment [4], the target named is T2, recombinant PD-1 N58Q mutant. Put plainly: BLI; Octet RED96; antibodies captured on anti-human Fc AHC2 tips, PD-1 proteins as analyte at different concentrations; Octet kinetics buffer; 1:1 binding model. Particulars: both partners purified.
The target of experiment [5] is T4, chimeric receptor with the extracellular and transmembrane domains of PD-1 and intracellular GFP, on CHO-K1 … (Homo sapiens, UniProt Q15116, N-glycans without core fucose (Fut8 KO host)).
T4 construct: PD-1, human, extracellular and transmembrane domains; differs in the host and so in the glycans; also called cell surface PD-1 (CHO-K1 Fut8 KO); source: CHO-K1 Fut8 KO, transfected, on cells
T4 sequence (Q15116 whole entry, looked up, stated change not applied, the tested form may be a part): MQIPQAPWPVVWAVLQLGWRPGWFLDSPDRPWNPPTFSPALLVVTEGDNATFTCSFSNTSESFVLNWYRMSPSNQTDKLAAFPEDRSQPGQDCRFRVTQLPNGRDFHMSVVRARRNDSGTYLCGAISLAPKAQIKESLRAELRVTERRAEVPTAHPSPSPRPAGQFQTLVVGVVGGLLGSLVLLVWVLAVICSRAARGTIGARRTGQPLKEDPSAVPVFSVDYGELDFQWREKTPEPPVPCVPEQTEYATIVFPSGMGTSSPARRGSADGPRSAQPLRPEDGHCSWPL
Put plainly: flow cytometry on cells; antibodies added to CHO-K1 or CHO-K1 Fut8 KO cells transfected with PD-1 (extracellular and transmembrane domains)-GFP, 30 min on ice; binding as percentage of PD-1 expression in GFP-positive cells; four-parameter logistic fit. Particulars: one partner purified.

Experiment [6] addresses non-fucosylated recombinant PD-1 (PD-1 NF) (human) (UniProt Q15116). Put plainly: ELISA; plate-based ligand blocking: plates coated with 5 ug/ml PD-1, PD-1 NF or PD-1 N58Q; antibodies 1 h at room temperature, washed, then 1 ug/ml PD-L1-Fc-biotin 2 h; streptavidin-HRP.
Experiment [7] addresses T1, PD-1 on Jurkat-Lucia TCR-hPD-1 cells. Put plainly: cell-based or functional assay.

Where two headings read alike, the source gives them in different places.

T3 sequence (Q15116 25-288): as the sequence (Q15116 25-288) above
Sequence of non-fucosylated recombinant PD-1 (PD-1 NF) (human) (Q15116 24-167): as the sequence (Q15116 24-167 N58Q) above, with Q35N counted along it
Sequence of nivolumab (heavy, as listed by the source, chain 1 of 2): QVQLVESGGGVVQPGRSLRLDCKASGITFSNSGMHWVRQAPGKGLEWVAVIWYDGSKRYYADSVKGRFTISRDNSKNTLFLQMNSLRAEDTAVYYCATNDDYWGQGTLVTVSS
Sequence of nivolumab (light, as listed by the source, chain 2 of 2): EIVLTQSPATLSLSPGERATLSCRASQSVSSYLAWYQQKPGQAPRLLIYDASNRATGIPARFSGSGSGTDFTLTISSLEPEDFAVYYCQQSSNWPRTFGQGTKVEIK

Take “non-fucosylated recombinant PD-1 (PD-1 NF) (from UniProt Q15116 24-167) (domain or fragment)”: the Kd – broadly, a measure of binding affinity in units of concentration – with camrelizumab turned out to be 380 nM; with cemiplimab, 87.1 nM; with nivolumab it was 20.8 nM; with pembrolizumab, 3.67 nM.

For the molecule “recombinant PD-1 (extracellular portion of human PD-1, residues 24-167) (from UniProt Q15116 24-167) (domain or fragment)”, the Kd with camrelizumab came to 3.41 nM; with cemiplimab, 2.95 nM.

B1: cemiplimab (antibody, V domains shown)
VH: EVQLLESGGVLVQPGGSLRLSCAASGFTFSNFGMTWVRQAPGKGLEWVSGISGGGRDTYFADSVKGRFTISRDNSKNTLYLQMNSLKGEDTAVYYCVKWGNIYFDYWGQGTLVTVSS
VL: DIQMTQSPSSLSASVGDSITITCRASLSINTFLNWYQQKPGKAPNLLIYAASSLHGGVPSRFSGSGSGTDFTLTIRTLQPEDFATYYCQQSSNTPFTFGPGTVVDFR
notes: Whole therapeutic anti-human PD-1 antibody; The PDB entry may hold only the variable part; source: bought: Selleck Chemicals
Consider B1, for which, in experiment [1], the PD-1/PD-L1 reporter assay (Jurkat-Lucia TCR-hPD-1 with Raji-APC-hPD-L1, luciferase): blockade of PD-1:PD-L1, fold change of IC50, Jurkat cells pretreated with the fucose inhibitor against untreated was 2.4 fold. The IC50 – broadly, the concentration that gives 50% inhibition – in [2] came to 1.4 nM; in experiment [3], 2.6 nM; in [6], 0.6 nM. For the same molecule, in [4], the equilibrium dissociation constant (Kd) stood at 260 nM. For the same molecule, the “fold change in EC50 (CHO-K1 Fut8 KO against wild-type CHO-K1)” value in experiment [5] was 1.3 fold.

B2: camrelizumab (antibody, V domains shown)
VH: EVQLVESGGGLVQPGGSLRLSCAASGFTFSSYMMSWVRQAPGKGLEWVATISGGGANTYYPDSVKGRFTISRDNAKNSLYLQMNSLRAEDTAVYYCARQLYYFDYWGQGTTVTVSS
VL: DIQMTQSPSSLSASVGDRVTITCLASQTIGTWLTWYQQKPGKAPKLLIYTATSLADGVPSRFSGSGSGTDFTLTISSLQPEDFATYYCQQVYSIPWTFGGGTKVEIK
notes: Whole therapeutic anti-human PD-1 antibody; a human IgG4 isotype was the control and anti-human IgG4 or anti-human IgG the detection reagent; The PDB entry may hold only the variable part; source: bought: Selleck Chemicals
Turning to B2, the 50% inhibitory concentration (IC50) in experiment [2] was 18 nM; in experiment [3] it was 5.6 nM; in [6] it was 1.5 nM. Moreover, the “PD-1/PD-L1 reporter assay (Jurkat-Lucia TCR-hPD-1 with Raji-APC-hPD-L1, luciferase): blockade of PD-1:PD-L1, fold change of IC50, Jurkat cells pretreated with the fucose inhibitor against untreated” value in experiment [7] amounted to 2.8 fold. Besides, the equilibrium dissociation constant (Kd) in [4] worked out at 449 nM. Further, the “fold change in EC50 (CHO-K1 Fut8 KO against wild-type CHO-K1)” value in experiment [5] came out at 3 fold.
